Test results from US8168591 (University of California, dated 2012).

Biological target: T1, recombinant soluble integrin αvβ3 (UniProt P06756 31-992; P05106 27-718)
T1 construct: extracellular domain; 'extracellular domain' is my reading of that; Made in CHO K1 cells and purified on Ni-NTA; The docking simulation used PDB 1L5G; also called soluble αvβ3
Test: Table 2 grade, αvβ3 binding (ELISA-type assay with soluble αvβ3)

T1 sequence (P06756 31-992, chain 1 of 2): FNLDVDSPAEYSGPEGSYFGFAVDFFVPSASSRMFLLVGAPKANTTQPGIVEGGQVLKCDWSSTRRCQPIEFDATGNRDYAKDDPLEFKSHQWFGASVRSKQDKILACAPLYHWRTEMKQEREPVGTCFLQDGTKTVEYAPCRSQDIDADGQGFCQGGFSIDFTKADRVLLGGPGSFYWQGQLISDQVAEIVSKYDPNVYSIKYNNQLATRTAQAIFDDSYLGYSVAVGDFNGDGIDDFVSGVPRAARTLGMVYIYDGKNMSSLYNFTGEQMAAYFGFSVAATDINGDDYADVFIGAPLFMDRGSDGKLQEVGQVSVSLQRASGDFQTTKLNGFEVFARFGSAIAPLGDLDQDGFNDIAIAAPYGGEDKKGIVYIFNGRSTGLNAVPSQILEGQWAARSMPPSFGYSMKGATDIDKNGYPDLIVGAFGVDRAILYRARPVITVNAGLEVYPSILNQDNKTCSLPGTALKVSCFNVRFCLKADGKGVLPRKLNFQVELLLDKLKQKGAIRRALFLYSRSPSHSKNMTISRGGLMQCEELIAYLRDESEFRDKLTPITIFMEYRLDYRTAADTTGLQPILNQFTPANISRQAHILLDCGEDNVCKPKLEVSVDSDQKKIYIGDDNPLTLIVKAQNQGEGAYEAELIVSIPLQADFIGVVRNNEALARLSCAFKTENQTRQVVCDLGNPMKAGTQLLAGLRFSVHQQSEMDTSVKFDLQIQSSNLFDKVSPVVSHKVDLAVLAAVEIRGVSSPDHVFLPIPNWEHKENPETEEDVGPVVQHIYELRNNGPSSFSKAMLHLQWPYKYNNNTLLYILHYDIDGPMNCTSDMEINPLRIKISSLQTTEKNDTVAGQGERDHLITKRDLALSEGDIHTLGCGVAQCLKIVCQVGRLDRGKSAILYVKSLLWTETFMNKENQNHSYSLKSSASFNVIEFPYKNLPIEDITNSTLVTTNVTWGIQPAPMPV
T1 sequence (P05106 27-718, chain 2 of 2): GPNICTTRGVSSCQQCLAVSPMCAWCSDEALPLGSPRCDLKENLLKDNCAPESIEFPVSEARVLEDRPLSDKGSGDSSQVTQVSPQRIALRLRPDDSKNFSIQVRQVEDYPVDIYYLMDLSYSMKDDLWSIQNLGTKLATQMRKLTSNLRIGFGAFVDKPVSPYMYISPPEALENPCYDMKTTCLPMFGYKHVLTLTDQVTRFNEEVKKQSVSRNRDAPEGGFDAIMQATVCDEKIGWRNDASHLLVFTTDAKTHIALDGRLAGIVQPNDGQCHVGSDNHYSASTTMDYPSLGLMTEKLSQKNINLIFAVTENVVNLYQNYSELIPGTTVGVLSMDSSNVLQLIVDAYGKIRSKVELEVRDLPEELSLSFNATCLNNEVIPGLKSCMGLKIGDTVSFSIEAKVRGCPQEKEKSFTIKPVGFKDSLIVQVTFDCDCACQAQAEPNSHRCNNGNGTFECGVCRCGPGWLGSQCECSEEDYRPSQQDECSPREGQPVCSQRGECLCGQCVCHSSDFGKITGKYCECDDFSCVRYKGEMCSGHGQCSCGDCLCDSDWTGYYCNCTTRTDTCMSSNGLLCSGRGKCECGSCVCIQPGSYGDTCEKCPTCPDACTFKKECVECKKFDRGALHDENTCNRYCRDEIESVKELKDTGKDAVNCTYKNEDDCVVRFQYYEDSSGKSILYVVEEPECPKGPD

binding result: binds
B1: FGF-1 Glu102/Tyr109/Asn110 to Ala mutant (3×A) (ligand)
chain: FNLPPGNYKKPKLLYCSNGGHFLRILPDGTVDGTRDRSDQHIQLQLSAESVGEVYIKSTETGQYLAMDTDGLLYGSQTPNEECLFLARLEENHAATYISKKHAEKNWFVGLKKNGSCKRGPRTHYGQKAILFLPLPVSSD
notes: also called 3xA; E1 02A/Y109A/Q110A
